# T1: Recombinantly expressed fused calprotectin (His6-linker-S100A9-linker-S100A8), product code B-RCAL, BÜHLMANN Laboratories AG (human), P06702
# T1 chain: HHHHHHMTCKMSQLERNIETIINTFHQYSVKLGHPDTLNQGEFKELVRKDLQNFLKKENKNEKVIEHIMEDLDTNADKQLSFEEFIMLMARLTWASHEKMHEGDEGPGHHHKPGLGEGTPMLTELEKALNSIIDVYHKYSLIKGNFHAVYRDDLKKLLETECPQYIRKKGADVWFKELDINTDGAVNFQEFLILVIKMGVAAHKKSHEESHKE
# Molecular target: T1, Recombinantly expressed fused …
# Test: SPR
# Conditions: modification not given
row,Binder,Kd [nM]
1,RCPECVAQPMFQCHWYCG [F8 Gln],> 10000
2,RCPECVAYPMFQCHWYCG [F8 Tyr],> 10000
3,RCPECVAEPMFQCHWYCG [F8 Glu],> 10000
4,RCPECVAAPMFQCHWYCG [F8 L-Ala],> 10000
5,RCPECVAFPMIQCHWYCG [F11 Ile],> 10000
6,RCPECVAIPMFQCHWYCG [F8 Ile],> 10000
7,RCPECVAFPMQQCHWYCG [F11 Gln],> 10000
8,RCPECVAFPMEQCHWYCG [F11 Glu],> 10000

# More lines, now with the values ahead:
row,Kd [nM],Binder
1,> 10000,RCPECVAFPMFQCAWYCG [H14 L-Ala]
2,> 10000,RCPECVAFPMKQCHWYCG [F11 Lys]
3,> 10000,RCPECVAFPMAQCHWYCG [F11 L-Ala]
4,> 10000,RCPECVAFPMFQCHWACG [Y16 L-Ala]

# Molecular target: T1, Recombinantly expressed fused …
# Test: fluorescence polarization
# Conditions: modification not given
row,Binder,Kd [nM]
1,ASPESVAFPMFQSHWYSG,32
2,RCPECAAFPMFQCHWYCG,39
3,RSPESVGFPMFQSHWYSG,29
4,RSAESVAFPMFQSHWYSG,28
5,ACPECVAFPMFQCHWYCG,32
6,RCAECVAFPMFQCHWYCG,28
7,RCPECVAFAMFQCHWYCG,30
8,RSPESVAFAMFQSHWYSG,30
9,RCPECVGFPMFQCHWYCG,29
10,RSPESAAFPMFQSHWYSG,39
11,RCPACVAFPMFQCHWYCG,26
12,RSPASVAFPMFQSHWYSG,26

# More lines, now with the values ahead:
row,Kd [nM],Binder
1,24,RSPESVAFPMFQSHAYSG
2,31,RCPECVAFPMFQCHWYCA
3,27,RSPESVAFPMFASHWYSG
4,27,RCPECVAFPMFACHWYCG
5,31,RSPESVAFPMFQSHWYSA
6,24,RCPECVAFPMFQCHAYCG
